Source: patent US20210220451A1
Where two headings read alike, the source gives them in different places.

Columns and labels:
[1] = biological target: 33-mer toxic gluten peptide from alpha-gliadin; assay: cell-based or functional assay
[2] = tested on: T1, 33-mer toxic gluten peptide from alpha-gliadin
T1 sequence: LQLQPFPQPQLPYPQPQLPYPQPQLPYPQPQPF

[3] = biological target: T2, 33-mer toxic gluten peptide from alpha-gliadin
T2 chain: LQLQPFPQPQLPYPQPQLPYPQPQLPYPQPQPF

Molecule	Relative Peak Area (%) of undigested 33-mer by LC-MS after 0.5 h at 100:1 substrate:enzyme, percent of the control without enzyme [3] [%]	other results
high molecular weight fraction (>approx. 10 kDa) of Nepenthes extract (fluid)		Relative Peak Area (%) of undigested 33-mer by LC-MS after 0.5 h at 100:1 substrate:enzyme, percent of the control without enzyme [1]: 0%
pepsin		Relative Peak Area (%) of undigested 33-mer by LC-MS after 0.5 h at 100:1 substrate:enzyme, percent of the control without enzyme [2]: 93.2%
recombinant nepenthesin II (from N. gracilis, acid-activated) (protein) QSSSGIETPVYAGDGEYLMNVAIGTPDSSFSAIMDTGSDLIWTQCEPCTQCFSQPTPIFNPQDSSSFSTLPCESQYCQDLPSETCNNNECQYTYGYGDGSTTQGYMATETFTFETSSVPNIAFGCGEDNQGFGQGNGAGLIGMGWGPLSLPSQLGVGQFSYCMTSYGSSSPSTLALGSAASGVPEGSPSTTLIHSSLNPTYYYITLQGITVGGDNLGIPSSTFQLQDDGTGGMIIDSGTTLTYLPQDAYNAVAQAFTDQINLPTVDESSSGLSTCFQQPSDGSTVQVPEISMQFDGGVLNLGEQNILISPAEGVICLAMGSSSQLGISIFGNIQQQETQVLYDLQNLAVSFVPTQCGAS	34	
recombinant nepenthesin I (from N. gracilis, acid-activated) (protein) APTHSTSRTALNHRHEAKVTGFQIMLEHVDSGKNLTKFQLLERAIERGSRRLQRLEAMLNGPSGVETSVYAGDGEYLMNLSIGTPAQPFSAIMDTGSDLIWTQCQPCTQCFNQSTPIFNPQGSSSFSTLPCSSQLCQALSSPTCSNNFCQYTYGYGDGSETQGSMGTETLTFGSVSIPNITFGCGENNQGFGQGNGAGLVGMGRGPLSLPSQLDVTKFSYCMTPIGSSTPSNLLLGSLANSVTAGSPNTTLIQSSQIPTFYYITLNGLSVGSTRLPIDPSAFALNSNNGTGGIIIDSGTTLTYFVNNAYQSVRQEFISQINLPVVNGSSSGFDLCFQTPSDPSNLQIPTFVMHFDGGDLELPSENYFISPSNGLICLAMGSSSQGMSIFGNIQQ	78.7	
